Among the data in PMC4132801, “A Structural and Biochemical Model of Processive Chitin Synthesis” (The Journal of Biological Chemistry, 2014) are Ki and Km values, retold here.

By Ki is commonly meant the dissociation constant of the complex between target and ligand, obtained from inhibition or displacement. Read a low Ki as higher affinity. Broadly, the Km is the concentration of substrate that gives half-maximal velocity.

What all share (test): coupled fluorogenic assay: chitinase B releases 4MU from 4MU-chitooligosaccharide product
In one data set the target is T1, SmNodC (Sinorhizobium meliloti, UniProt P04341).
T1 construct: gene nodC; full-length (1-426), C-terminal mCherry-His fusion from pEXmCherry, E. coli BL21(DE3) C43 membrane fraction, not purified
T1 sequence (P04341 1-426): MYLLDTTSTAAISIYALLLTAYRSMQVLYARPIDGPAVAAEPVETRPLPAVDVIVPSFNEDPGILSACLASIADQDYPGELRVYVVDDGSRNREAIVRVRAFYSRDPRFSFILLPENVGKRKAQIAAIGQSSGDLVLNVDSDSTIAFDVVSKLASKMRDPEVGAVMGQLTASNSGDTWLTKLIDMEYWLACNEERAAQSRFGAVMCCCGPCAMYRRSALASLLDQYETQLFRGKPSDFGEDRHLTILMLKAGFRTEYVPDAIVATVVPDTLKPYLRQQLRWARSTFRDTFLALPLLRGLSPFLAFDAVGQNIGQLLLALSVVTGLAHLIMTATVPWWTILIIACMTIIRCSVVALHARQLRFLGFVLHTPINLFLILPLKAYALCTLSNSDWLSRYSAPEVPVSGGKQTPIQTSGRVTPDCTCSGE
It is filed as biochemical. An excerpt: coupled fluorogenic assay: chitinase B releases 4MU from 4MU-chitooligosaccharide product on SmNodC | Nikkomycin Z is a competitive inhibitor with the substrate UDP-GlcNAc, with a Ki of […]

Substrate in data set [1]: CC(=O)N[C@H]1[C@@H](OP(=O)(O)OP(=O)(O)OC[C@H]2O[C@@H](n3ccc(=O)[nH]c3=O)[C@H](O)[C@@H]2O)O[C@H](CO)[C@@H](O)[C@@H]1O
It is filed as biochemical, Sinorhizobium meliloti. Particulars: excess 4MU-GlcNAc as co-substrate, 10 mM MgCl2, pH 7.5, 250 mM NaCl, 20 °C, E. coli membrane fraction.

Substrate in data set [2]: CC(=O)N[C@H]1[C@H](Oc2ccc3c(C)cc(=O)oc3c2)O[C@H](CO)[C@@H](O)[C@@H]1O
It is filed as biochemical, Sinorhizobium meliloti. Particulars: acceptor substrate, excess UDP-GlcNAc as co-substrate, 10 mM MgCl2, pH 7.5, 250 mM NaCl, 20 °C, E. coli membrane fraction.

Consider `C[C@@H]([C@H](N)C(=O)N[C@H](C(=O)O)[C@H]1O[C@@H](n2ccc(=O)[nH]c2=O)[C@H](O)[C@@H]1O)[C@H](O)c1ccc(O)cn1` [Nikkomycin Z], for which, on SmNodC, the affinity, expressed as Ki, was 250 nM. This counts as sub-micromolar.

B1: SmNodC (Sinorhizobium meliloti 1021) (protein)
chain: MYLLDTTSTAAISIYALLLTAYRSMQVLYARPIDGPAVAAEPVETRPLPAVDVIVPSFNEDPGILSACLASIADQDYPGELRVYVVDDGSRNREAIVRVRAFYSRDPRFSFILLPENVGKRKAQIAAIGQSSGDLVLNVDSDSTIAFDVVSKLASKMRDPEVGAVMGQLTASNSGDTWLTKLIDMEYWLACNEERAAQSRFGAVMCCCGPCAMYRRSALASLLDQYETQLFRGKPSDFGEDRHLTILMLKAGFRTEYVPDAIVATVVPDTLKPYLRQQLRWARSTFRDTFLALPLLRGLSPFLAFDAVGQNIGQLLLALSVVTGLAHLIMTATVPWWTILIIACMTIIRCSVVALHARQLRFLGFVLHTPINLFLILPLKAYALCTLSNSDWLSRYSAPEVPVSGGKQTPIQTSGRVTPDCTCSGE
notes: full-length (1-426), C-terminal mCherry-His fusion from pEXmCherry, E. coli BL21(DE3) C43 membrane fraction, not purified
In the case of B1, the figures for the Michaelis-Menten constant (Km) in data set [1] and in data set [2] were 90 ± 15 µM and 1600 ± 400 µM, respectively.
